Test results as given in article PMC2844702 (Chemistry & biology, 2009).
pKd: −log10 of the molar value. Blank lines part the entries; values can stand above or below the molecule they belong to.

Tests used:
TrkB [1] = target: TrkB (UniProt Q16620); conditions: cited from earlier work
TrkA 97-120 = TrkA 97-120 (UniProt P04629); conditions: cited from earlier work
TrkA = TrkA (UniProt P04629); conditions: cited from earlier work
TrkB [2] = type: binding

Chain of UniProt Q16620 (Q16620 32-430): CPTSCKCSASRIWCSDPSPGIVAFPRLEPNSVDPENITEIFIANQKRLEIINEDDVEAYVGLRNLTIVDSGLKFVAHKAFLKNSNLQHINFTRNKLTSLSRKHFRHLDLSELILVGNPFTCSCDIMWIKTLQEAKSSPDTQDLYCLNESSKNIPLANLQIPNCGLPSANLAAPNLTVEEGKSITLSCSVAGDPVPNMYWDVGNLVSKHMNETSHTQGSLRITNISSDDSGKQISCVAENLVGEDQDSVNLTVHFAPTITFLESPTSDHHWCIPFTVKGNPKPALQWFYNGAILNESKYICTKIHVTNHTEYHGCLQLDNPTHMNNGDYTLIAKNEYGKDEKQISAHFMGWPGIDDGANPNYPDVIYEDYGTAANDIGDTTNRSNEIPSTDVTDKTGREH

Molecule: BDNF (from UniProt P23560)
pKd (TrkB [1]): 9.00

Molecule: NGF (from UniProt P01139)
pKd (TrkA 97-120): 8.89 | pKd (TrkA): 9.00

pKd (TrkB [2]): ~4.85
Molecule: CN(C)CCC=C1c2ccccc2CCc2ccccc21 [amitriptyline]
